Results reported in patent US10208288B2, “Differentiation of human embryonic stem cells into pancreatic endocrine cells” (Janssen Biotech, Inc., priority 2012, dated 2019).

Test system: cells of the human embryonic stem cell line H1 differentiated to stage 5
Assay: Real-time PCR of pancreatic endoderm/endocrine genes after factors spiked into stage 5 media
Format: cell-based
Description: Cells of the human embryonic stem cell line H1 (hESC H1, passage 40) were seeded as single cells at 1×10^5 cells/cm^2 on MATRIGEL™ (1:30 dilution; BD Biosciences, NJ)-coated dishes in mTeSR®1 media (StemCell Technologies, Vancouver, Canada) supplemented with 10 μM of Y27632 (Rock inhibitor, Catalog No. Y0503, SigmaAldrich, St. Louis, Mo.). Forty-eight hours post seeding, cultures were washed in incomplete PBS (phosphate buffered saline without Mg or Ca). Cultures were differentiated into pancreatic endoderm/endocrine lineages as follows: • a) Stage 1 (Definitive Endoderm (DE)—3 days): Cells were cultured for one day in stage 1 media: MCDB-131 medium (Catalog No. 10372-019, Invitrogen, Carlsbad, Calif.) supplemented with 0.1% fatty acid-free BSA (Catalog No. 68700, Proliant, Ankeny, Iowa), 0.0012 g/ml sodium bicarbonate (Catalog No. S3187, SigmaAldrich, St. Louis, Mo.), 1× GlutaMax™ (Invitrogen Catalog No. 35050-079), 4.5 mM D-Glucose (SigmaAldrich Catalog No. G8769), 100 ng/ml GDF8 (R&D Systems, Minneapolis, Minn.) and 1 μM MCX compound (a GSK3B inhibitor, 14-Prop-2-en-1-yl-3,5,7,14,17,23,27-heptaazatetracyclo [19.3.1.1˜2,6˜0.1˜8,12˜]heptacosa-1(25),2(27),3,5,8(26),9,11,21,23-nonaen-16-one, US Patent Application Publication No. 2010-0015711; incorporated herein by reference in its entirety). Cells were then cultured for additional day in MCDB-131 medium supplemented with 0.1% fatty acid-free BSA, 0.0012 g/ml sodium bicarbonate, 1× GlutaMax™, 4.5 mM D-Glucose, 100 ng/ml GDF8, and 0.1 μM MCX compound. Cells were then cultured for an additional day in MCDB-131 medium supplemented with 0.1% fatty acid-free BSA, 0.0012 g/ml sodium bicarbonate, 1× GlutaMax™, 4.5 mM D-Glucose, and 100 ng/ml GDF8, then • b) Stage 2 (Primitive gut tube—2 days): Cells were treated for two days with MCDB-131 medium supplemented with 0.1% fatty acid-free BSA; 0.0012 g/ml sodium bicarbonate; 1× GlutaMax™; 4.5 mM D-Glucose; 0.25 mM ascorbic acid (Sigma, St. Louis, Mo.) and 25 ng/ml FGF7 (R & D Systems, Minneapolis, Minn.), then • c) Stage 3 (Foregut—2 days): Cells were treated with MCDB-131 medium supplemented with a 1:200 dilution of ITS-X (Invitrogen); 4.5 mM Glucose; 1× GlutaMax™; 0.0017 g/ml sodium bicarbonate; 2% fatty acid-free BSA; 0.25 μM SANT-1 (Sigma, St. Louis, Mo.); 10 ng/ml of Activin-A (R & D Systems); 1 μM retinoic acid (RA; Sigma); 25 ng/ml FGF7; 0.25 mM ascorbic acid; 200 nM TPB (a PKC activator; Catalog No. 565740; EMD Chemicals, Gibstown, N.J.); 10 μM forskolin (FSK, Sigma), and 100 nM LDN (a BMP receptor inhibitor; Catalog No. 04-0019; Stemgent; San Diego, Calif.) for day 1. On day 2, cells were treated with MCDB-131 medium supplemented with a 1:200 dilution of ITS-X; 4.5 mM Glucose; 1× GlutaMax™; 0.0017 g/ml sodium bicarbonate; 2% fatty acid-free BSA; 0.25 μM SANT-1; 10 ng/ml of Activin A; 1 μM RA; 25 ng/ml FGF7; 0.25 mM ascorbic acid, 200 nM TPB, 10 μM forskolin and 10 nM LDN, then • d) Stage 4 (Pancreatic foregut precursor—2 days); Cells were treated with MCDB-131 medium supplemented with a 1:200 dilution of ITS-X; 4.5 mM Glucose; 1× GlutaMax™; 0.0015 g/ml sodium bicarbonate; 2% fatty acid-free BSA; 0.25 μM SANT-1; 50 nM RA; 50 nM LDN-193189; 10 μM forskolin; 0.25 mM ascorbic acid; and 100 nM TPB for two days, then • e) Stage 5 (Pancreatic endoderm/endocrine—3 days): Stage 4 cells were treated with MCDB-131 medium supplemented with a 1:200 dilution of ITS-X; 20 mM Glucose; 1× GlutaMax™; 0.0015 g/ml sodium bicarbonate; 2% fatty acid-free BSA; 0.25 μM SANT-1; 50 nM RA; 10 μM forskolin; 0.25 mM ascorbic acid for three days, with the addition of 100 nM ALk5 inhibitor SD-208 (disclosed in Molecular Pharmacology 2007, 72:152-161) for days 2-3 only.
At day 1 of stage 5, the factors listed in Table I, below, were spiked into the media and upon completion of S5 (day 3 of stage 5) mRNA was collected for PCR analysis of relevant pancreatic endoderm/endocrine genes. As a control, cultures were treated only with the S5 media listed above. […]

B1: Ephrin-A4: Ephrin ligand protein, R & D Systems catalogue number 369-EA (protein, UniProt P52798 26-170, looked up)
Ephrin-A4: LRHVVYWNSSNPRLLRGDAVVELGLNDYLDIVCPHYEGPGPPEGPETFALYMVDWPGYESCQAEGPRAYKRWVCSLPFGHVQFSEKIQRFTPFSLGFEFLPGETYYYISVPTPESSGQCLRLQVSVCCKERKSESAHPVGSPGES
- PDX1 expression (Ephrin-A4 100 ng/ml at S5, mRNA at day 3 of S5, vs control, FIG. 1E): minimal impact
- NGN3 expression (Ephrin-A4 100 ng/ml at S5, mRNA at day 3 of S5, vs control, FIG. 1G): minimal impact
- mRNA expression of insulin (factor spiked at day 1 of stage 5, mRNA at day 3 of S5, vs control cultures, Table I: Ephrin-A4 100 ng/ml, Activin A and Activin C 20 ng/ml, FIG. 1A): enhanced
- mRNA expression of NKX6.1 (factor spiked at day 1 of stage 5, mRNA at day 3 of S5, vs control cultures, Table I: Ephrin-A4 100 ng/ml, Semaphorin 3a 50 ng/ml, Epigen 20 ng/ml, FIG. 1F): enhanced
